Test results published in patent EP4613276A2 (Actym Therapeutics, Inc., dated 2025).

How the values were obtained:
[1] = biological target: CD3 on Jurkat-Lucia™ NFAT cells (Homo sapiens (Human)) (UniProt P07766); assay: flow cytometry on Jurkat-Lucia NFAT cells, concentrated supernatant, BiTE detected with anti-FLAG-APC (anti-FLAG-APC only: 1519)
[2] = biological target: CD3 on Jurkat-Lucia™ NFAT cells (Homo sapiens (Human)) (UniProt P07766); assay: flow cytometry on Jurkat-Lucia NFAT cells, BiTE detected with anti-FLAG-APC (anti-FLAG-APC only: 1519)
[3] = biological target: CD3 on Jurkat-Lucia™ NFAT cells (Homo sapiens (Human)) (UniProt P07766); assay: cell-based or functional assay
CD19 on Raji cells [4] = biological target: CD19 on Raji cells (UniProt P15391); assay: flow cytometry on Raji cells, BiTE detected with anti-FLAG-APC (anti-FLAG-APC only: 1439)
CD19 on Raji cells [5] = biological target: CD19 on Raji cells (UniProt P15391); assay: flow cytometry on Raji cells, concentrated supernatant, BiTE detected with anti-FLAG-APC (anti-FLAG-APC only: 1439)
[6] = biological target: mouse TGF-β1 (R&D Systems) (mouse) (UniProt P04202); assay: direct ELISA with mouse TGF-β1 on concentrated HEK293T supernatant (media control 0.041 ± 0.002)
[7] = biological target: mouse TGF-β1 (R&D Systems) (mouse) (UniProt P04202); assay: direct ELISA with mouse TGF-β1 on HEK293T supernatant (media control 0.041 ± 0.002)
[8] = biological target: recombinant murine CTLA-4-human IgG1 Fc chimera (R&D Systems) (mouse; human) (UniProt P09793); assay: competitive ELISA: HEK293T supernatant mixed with 10 ng/ml murine CTLA-4-human IgG1 Fc, on coated mouse CD80 (competitor); anti-human IgG1-HRP detection
[9] = biological target: recombinant murine CTLA-4-human IgG1 Fc chimera (R&D Systems) (mouse; human) (UniProt P09793); assay: competitive ELISA: HEK293T supernatant mixed with 10 ng/ml murine CTLA-4-human IgG1 Fc, on coated mouse CD86 (competitor); anti-human IgG1-HRP detection
[10] = biological target: T1, recombinant murine CTLA-4-human IgG1 Fc chimera (R&D Systems) (mouse; human, UniProt P09793 36-162; P01857 100-330 = IgG part, limits assumed); assay: direct ELISA of transfected HEK293T supernatant on mouse CTLA-4-Fc; the grade is printed as the payload's expression level
T1 construct: Bought reagent; also called mouse CTLA-4-Fc

Chain of CD3 on Jurkat-Lucia™ NFAT cells (Homo sapiens (Human)) (P07766 23-207 limits assumed, form in doubt, chain 1 of 3): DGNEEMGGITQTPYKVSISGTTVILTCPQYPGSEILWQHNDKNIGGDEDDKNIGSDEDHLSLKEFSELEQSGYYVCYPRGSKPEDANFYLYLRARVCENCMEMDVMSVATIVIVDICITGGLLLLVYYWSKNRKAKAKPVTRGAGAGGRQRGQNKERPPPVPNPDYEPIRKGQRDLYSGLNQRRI
Chain of CD3 on Jurkat-Lucia™ NFAT cells (Homo sapiens (Human)) (delta, as listed by the source limits assumed, form in doubt, chain 2 of 3): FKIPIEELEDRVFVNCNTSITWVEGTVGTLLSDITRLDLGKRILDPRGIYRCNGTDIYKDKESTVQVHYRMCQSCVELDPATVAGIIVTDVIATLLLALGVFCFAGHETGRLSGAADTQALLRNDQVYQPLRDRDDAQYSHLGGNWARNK
Chain of CD3 on Jurkat-Lucia™ NFAT cells (Homo sapiens (Human)) (gamma, as listed by the source limits assumed, form in doubt, chain 3 of 3): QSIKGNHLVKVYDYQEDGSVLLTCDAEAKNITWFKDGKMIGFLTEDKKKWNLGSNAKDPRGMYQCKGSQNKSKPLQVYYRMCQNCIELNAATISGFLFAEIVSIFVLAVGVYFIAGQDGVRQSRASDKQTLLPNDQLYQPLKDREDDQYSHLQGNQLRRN
Chain of CD19 on Raji cells (P15391 20-556 limits assumed): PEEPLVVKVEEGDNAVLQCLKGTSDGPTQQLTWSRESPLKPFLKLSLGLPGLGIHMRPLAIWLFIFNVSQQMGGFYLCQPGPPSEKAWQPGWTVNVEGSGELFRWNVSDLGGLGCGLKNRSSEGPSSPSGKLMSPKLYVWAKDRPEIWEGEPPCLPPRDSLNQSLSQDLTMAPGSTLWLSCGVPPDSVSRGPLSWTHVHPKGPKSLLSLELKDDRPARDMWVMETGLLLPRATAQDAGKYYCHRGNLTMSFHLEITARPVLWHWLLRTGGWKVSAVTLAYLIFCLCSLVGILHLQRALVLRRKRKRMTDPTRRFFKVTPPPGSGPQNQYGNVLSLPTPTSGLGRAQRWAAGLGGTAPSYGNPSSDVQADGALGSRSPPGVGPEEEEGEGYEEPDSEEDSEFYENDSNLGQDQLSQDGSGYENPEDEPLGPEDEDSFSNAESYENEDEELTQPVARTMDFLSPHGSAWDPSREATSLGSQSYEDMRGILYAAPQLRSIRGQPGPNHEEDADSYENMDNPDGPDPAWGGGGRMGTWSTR
Chain of mouse TGF-β1 (R&D Systems) (mouse) (P04202 279-390 limits assumed): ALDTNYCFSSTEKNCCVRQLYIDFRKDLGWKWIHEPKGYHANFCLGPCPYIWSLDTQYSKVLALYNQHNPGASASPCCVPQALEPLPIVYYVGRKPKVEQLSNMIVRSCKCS

In the case of “CD3xCD19 bispecific T-cell engager (BiTE®), containing a FLAG tag and a His tag (bispecific antibody)”, the Mean Fluorescence Intensity (MFI) of APC+ Cells [1] is reported as 14100 MFI, the Mean Fluorescence Intensity (MFI) of APC+ Cells [2] is reported as 4580 MFI and the Luminescence (NFAT reporter), 1 Raji: 1 Jurkat, 6 hour time point, CD3xCD19 BiTE® [3] is reported as 2060 Luminescence. For the same molecule, the Luminescence (NFAT reporter), 1 Raji: 1 Jurkat, 6 hour time point, concentrated CD3xCD19 BiTE® [3] was 4340 Luminescence, the Luminescence (NFAT reporter), 1 Raji: 1 Jurkat, 24 hour time point, CD3xCD19 BiTE® [3] was 6020 Luminescence and the Luminescence (NFAT reporter), 1 Raji: 1 Jurkat, 24 hour time point, concentrated CD3xCD19 BiTE® [3] was 18600 Luminescence. For the same molecule, the Luminescence (NFAT reporter), 2 Raji: 1 Jurkat, 6 hour time point, CD3xCD19 BiTE® [3] was 3440 Luminescence, the Luminescence (NFAT reporter), 2 Raji: 1 Jurkat, 6 hour time point, concentrated CD3xCD19 BiTE® [3] was 12100 Luminescence and the Luminescence (NFAT reporter), 2 Raji: 1 Jurkat, 24 hour time point, CD3xCD19 BiTE® [3] was 11300 Luminescence. It also gave a Luminescence (NFAT reporter), 2 Raji: 1 Jurkat, 24 hour time point, concentrated CD3xCD19 BiTE® [3] of 47200 Luminescence, a Mean Fluorescence Intensity (MFI) of APC+ Cells (CD19 on Raji cells [4]) of 7410 MFI and a Mean Fluorescence Intensity (MFI) of APC+ Cells (CD19 on Raji cells [5]) of 16000 MFI.

With “Soluble mouse TGFβ receptor II-Fc (Fc fusion)” the Absorbance at 450 nm (absorbance at 450 nm) [6] was 1.52 and the Absorbance at 450 nm (absorbance at 450 nm) [7] was 1.51.

In the case of “anti-CTLA-4 scFv (ipilimumab scFv antibody fragment)”, the % CD80 Blockade Activity [8] is reported as 7% and the % CD86 Blockade Activity [9] is reported as 32.5%.

B1: anti-murine CTLA-4 scFv (derived from the 9D9 clone) (scFv)
scFv: DIVMTQTTLSLPVSLGDQASISCRSSQSIVHSNGNTYLEWYLQKPGQSPKLLIYKVSNRFSGVPDRFSGSGSGTDFTLKISRVEAEDLGVYYCFQGSHVPYTFGGGTKLEIKGGGGSGGGGSGGGGSEAKLQESGPVLVKPGASVKMSCKASGYTFTDYYMNWVKQSHGKSLEWIGVINPYNGDTSYNQKFKGKATLTVDKSSSTAYMELNSLTSEDSAVYYCARYYGSWFAYWGQGTLVTVSS
notes: Tested as HEK293T supernatant; also called anti-muCTLA-4 scFv
B1: binds [10].

B2: anti-murine CTLA-4 scFv-Fc (derived from the 9D9 clone, mouse IgG2a Fc) (Fc fusion)
chain: DIVMTQTTLSLPVSLGDQASISCRSSQSIVHSNGNTYLEWYLQKPGQSPKLLIYKVSNRFSGVPDRFSGSGSGTDFTLKISRVEAEDLGVYYCFQGSHVPYTFGGGTKLEIKGGGGSGGGGSGGGGSEAKLQESGPVLVKPGASVKMSCKASGYTFTDYYMNWVKQSHGKSLEWIGVINPYNGDTSYNQKFKGKATLTVDKSSSTAYMELNSLTSEDSAVYYCARYYGSWFAYWGQGTLVTVSSEPRGPTIKPCPPCKCPAPNLLGGPSVFIFPPKIKDVLMISLSPIVTCVVVDVSEDDPDVQISWFVNNVEVHTAQTQTHREDYNSTLRVVSALPIQHQDWMSGKEFKCKVNNKDLPAPIERTISKPKGSVRAPQVYVLPPPEEEMTKKQVTLTCMVTDFMPEDIYVEWTNNGKTELNYKNTEPVLDSDGSYFMYSKLRVEKKNWVERNSYSCSVVHEGLHNHHTTKSFSRTPGK
notes: Tested as HEK293T supernatant; also called anti-muCTLA-4 scFv-Fc
B2: binds [10].
